Experimental data reported in paper PMC12488874, “Structural insights into Wnt/β-catenin signaling regulation by LGR4, R-spondin, and ZNRF3” (Nature Communications, 2025).
One block for each molecule: values may come before it.

B1: human ZNRF3 (residues 56-267, ECD-TMD) (domain or fragment, UniProt Q9ULT6 56-267, looked up)
chain: KETAFVEVVLFESSPSGDYTTYTTGLTGRFSRAGATLSAEGEIVQMHPLGLCNNNDEEDLYEYGWVGVVKLEQPELDPKPCLTVLGKAKRAVQRGATAVIFDVSENPEAIDQLNQGSEDPLKRPVVYVKGADAIKLMNIVNKQKVARARIQHRPPRQPTEYFDMGIFLAFFVVVSLVCLILLVKIKLKQRRSQNSMNRLAVQALEKMETRKF
notes: human ZNRF3, residues 56-267 (ECD-TMD), UniProt Q9ULT6; Cloned with the rabbit immunoglobulin heavy chain V signal peptide at the N-terminus in place of its own; no tag is named for this construct; also called Zinc and Ring Finger 3

Columns and labels:
[1] = target: human ZNRF3 (residues 56-267, ECD-TMD) (human) (UniProt Q9ULT6)
[2] = target: the molecule itself; assay: cryo-EM structure; LGR4, RSPO2 and ZNRF3 co-expressed in Expi293F, complex solubilised in LMNG/CHS and purified by anti-DYKDDDDK resin (FLAG on LGR4) and SEC in 0.01% GDN; two complexes in one sample, 1:1:2 (3.2 Å) and 2:2:2 (3.5 Å)
[3] = target: T1, human LGR4 (residues 1-822), ECD and TMD, expressed in Expi293F cells (human, UniProt Q9BXB1 25-822); assay: as above; conditions: both partners purified
T1 construct: signal peptide in the construct; human LGR4, residues 1-822 (ECD and TMD), UniProt Q9BXB1; no cleavage is described. pEZT-BM vector; not shown: FLAG, C-terminal, kept

[4] = target: B1; assay: as above; conditions: both partners purified
[5] = target: T2, human LGR4 (residues 1-822), ECD and TMD, expressed in ExpiSf9 cells (human, UniProt Q9BXB1 25-822); assay: cryo-EM structure; individually purified LGR4 and RSPO2 mixed at a 1:2 ratio for 3 hours at 4 °C, complex isolated by SEC (25 mM HEPES-NaOH pH 7.5, 0.15 M NaCl, 0.01% GDN); overall resolution 4.0 Å; conditions: both partners purified
T2 construct: signal peptide in the construct; human LGR4, residues 1-822 (ECD and TMD, without the ICD), UniProt Q9BXB1; no cleavage is described; also called Leucine-rich repeat-containing G protein-coupled receptor 4; apo LGR4; source: ExpiSf9 (baculovirus), membrane fraction solubilised in LMNG/CHS, purified (Ni-NTA, SEC)

RSPO2-induced TOPFlash Wnt/β-catenin reporter activity in HEK293T cells (siRNA against LGR4 and LGR5; 5% Wnt3a-conditioned medium, 3 ng/mL RSPO2), against wild-type LGR4 [1]: 50 % reduction
Molecule: full-length human LGR4 (CD4 TMD): TMD (7-TM, aa526-822) replaced with that of CD4 (1-TM) (from UniProt Q9BXB1 25-525; Q9BXB1 823-951) (receptor)

Molecule: B1
stoichiometry N [2]: 2
binding result [3]: binds

binding result [4]: binds
stoichiometry N [5]: 1
B2: human RSPO2 (residues 20-143, Fu1-2 domains) (ligand, UniProt Q6UXX9 20-143, looked up)
chain: HCQGNRWRRSKRASYVSNPICKGCLSCSKDNGCSRCQQKLFFFLRREGMRQYGECLHSCPSGYYGHRAPDMNRCARCRIENCDSCFSKDFCTKCKVGFYLHRGRCFDECPDGFAPLEETMECVE
notes: human RSPO2, Fu1-2 domains, UniProt Q6UXX9; no cleavage is described; Codon-optimised synthetic DNA in pEZT-BM; also called R-spondin 2; source: Expi293F, secreted into the medium, purified (Ni-NTA, SEC); also co-transfected in Expi293F with LGR4 and ZNRF3 and co-purified with them
